Data as given in US20210324080A1 (JIANGSU HUAIYU PHARMACEUTICAL, published 2021).
Positions count from the first letter of the chain named.

Legend:
[1] = target: T1, CTLA-4-hFc (immunogen A; hFc-labeled CTLA-4 extracellular domain protein) (human, UniProt P16410 36-161); experiment: blocking assay, CTLA-4 protein, competitor B7.1
T1 construct: range 36-161; Made in HEK293 cells, purified on protein A; also called CLTA-4-hFc; CTLA-4 protein; not shown: human IgG Fc fragment (hFc) of the pCpC vector
T1 sequence (looked up): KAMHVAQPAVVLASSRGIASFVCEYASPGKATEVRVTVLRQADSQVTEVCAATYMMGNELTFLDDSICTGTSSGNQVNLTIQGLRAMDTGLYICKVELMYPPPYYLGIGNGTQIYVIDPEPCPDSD
Experimental: (§1) CTLA-4 extracellular domain protein (CTLA-4-hFc) was diluted with PBS to a final concentration of 1.0 μg/mL, and then added to a 96-well ELISA plate as 100 μl per well. The plate was covered with a plastic film and incubated overnight at 4° C. The plate was washed twice with plate washing solution [PBS containing 0.01% (v/v) Tween 20] on the next day, and added with blocking solution [PBS containing 0.01% (v/v) Tween 20 and 1% (w/w) BSA] and blocked at room temperature for 2 hours. […] After 2 hours, the plate was washed 3 times with a plate washing solution [PBS containing 0.01% (v/v) Tween 20]. HRP (horseradish peroxidase) labeled avidin diluent (purchased from Sigma) was added 100 microliters per well, and after the plate was incubated for 2 hours at 37° C., it was washed with plate washing solution [PBS containing 0.01% (v/v) Tween 20] for 3 times. […] TMB substrate was added to each well. After incubated at room temperature for 30 minutes, the plate was added with […] stop solution (1.0N HCl) to each well. An ELISA plate reader (SpectraMax 384plus, Molecular Device) was used to read the A450 nm value.

[2] = target: T2, human CTLA-4 (Y201V), full length, on transfected cells (human, UniProt P16410 36-223); experiment: FACS, human CTLA-4 expressing cells
T2 construct: whole, on cells; also called hCTLA-4; HEK293-hCTLA-4 (Y201V)
T2 sequence (looked up): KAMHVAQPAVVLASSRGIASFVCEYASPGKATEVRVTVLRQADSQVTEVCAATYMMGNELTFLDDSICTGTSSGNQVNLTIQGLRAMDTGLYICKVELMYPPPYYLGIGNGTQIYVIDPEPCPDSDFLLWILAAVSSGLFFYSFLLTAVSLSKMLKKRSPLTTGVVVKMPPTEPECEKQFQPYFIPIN

[3] = target: T1, CTLA-4-hFc (immunogen A; hFc-labeled …); experiment: blocking assay, CTLA-4 protein, competitor B7.2
Experimental: as §1

[4] = target: T1, CTLA-4-hFc (immunogen A; hFc-labeled …); experiment: receptor-ligand blocking assay: CTLA-4 protein, antibody titrated, blocked ligand B7.1, inhibition (%)
Experimental: as §1

[5] = target: T3, CTLA-4 on human T lymphocytes (PBMC, CD3+ T cells) (human, UniProt P16410 36-223); experiment: cell-based or functional assay
T3 sequence (looked up): T2 sequence (looked up) with V166Y

[6] = target: T4, recombinant His-labeled hCTLA-4 ECD protein (human, UniProt P16410 36-161); experiment: SPR Biacore T200, antibody captured by anti-human Fc, 1:1 model
T4 construct: extracellular domain; also called human CTLA-4 ECD; not shown: His label
T4 sequence (looked up): T1 sequence (looked up)
Experimental: Anti-human Fc IgG was fixed on flow cell 1 and 2. HBS-EP+ (10 mmol/L HEPES, 150 mmol/L NaCl, 3 mM EDTA, 0.05% P20, pH 7.4) was used as the running buffer, and anti-human Fc IgG was fixed using the fixing wizard template. The flow cells 1 and 2 connected in series with S CM5 sensor chip were activated with freshly mixed 50 mmol/L NHS and 200 mmol/L EDC. Anti-human Fc IgG was diluted to […] with 10 mmol/L NaAC (pH 4.5) and injected into activated flow cells 1 and 2. The remaining active coupling sites were blocked with 1 mol/L ethanolamine.
The recombinant His-labeled hCTLA-4 ECD protein was diluted to 50 nmol/L, and then serially diluted 4 times with HBS-EP+ buffer at a 2-fold ratio. […] Each antibody was injected into the CM5 sensor flow cell 2 at a flow rate of 10 μL/min to achieve a response of 230 RU. Then the prepared His-labeled hCTLA-4ECD protein was injected into flow cells 1 and 2 at a flow rate of 30 μL/min for 180 seconds. The buffer flow was maintained for 400 seconds for dissociation measurement (30 μL/min). To remove the tested antibody from the surface, 10 mmol/L glycine-HCl pH1.5 was injected for 20 seconds (30 μL/min). Flow cell 1 was used as a reference flow cell. The above steps were repeated for each concentration of serially diluted His-labeled CTLA-4ECD protein. The KD value of each antibody was evaluated using Biacore T200 evaluation software 1.0, and a 1:1 binding model was used to fit the data.

% Block at 0.000128 nM [1]: 0%
% Block at 0.0128 nM [1]: 5.1%
% Block at 0.064 nM [1]: 30.4%
% Block at 0.32 nM [1]: 74.5%
% Block at 1.6 nM [1]: 95.9%
% Block at 8 nM [1]: 98.5%
% Block at 40 nM [1]: 99.1%
% Block at 200 nM [1]: 99.3%
MFI at 0.000128 nM [2]: 3
MFI at 0.0128 nM [2]: 34
MFI at 0.064 nM [2]: 96
MFI at 0.32 nM [2]: 260
MFI at 1.6 nM [2]: 547
MFI at 8 nM [2]: 756
MFI at 40 nM [2]: 941
MFI at 200 nM [2]: 998
% Block at 0.000128 nM [3]: 0%
% Block at 0.0128 nM [3]: 25.6%
% Block at 0.064 nM [3]: 48.1%
% Block at 0.32 nM [3]: 84.4%
% Block at 1.6 nM [3]: 99%
% Block at 8 nM [3]: 99.1%
% Block at 40 nM [3]: 99.1%
% Block at 200 nM [3]: 99.2%
IC50 (read off the curve) [4]: ~1 nM
IL-2 secretion, pg/ml, at 0.13 ug/ml, N = 1 [5]: 1660 pg/mL
IL-2 secretion, pg/ml, at 0.13 ug/ml, N = 2 [5]: 1630 pg/mL
IL-2 secretion, pg/ml, at 0.37 ug/ml, N = 1 [5]: 1760 pg/mL
IL-2 secretion, pg/ml, at 0.37 ug/ml, N = 2 [5]: 2000 pg/mL
IL-2 secretion, pg/ml, at 1.1 ug/ml, N = 1 [5]: 2650 pg/mL
IL-2 secretion, pg/ml, at 1.1 ug/ml, N = 2 [5]: 3630 pg/mL
IL-2 secretion, pg/ml, at 3.3 ug/ml, N = 1 [5]: 4420 pg/mL
IL-2 secretion, pg/ml, at 3.3 ug/ml, N = 2 [5]: 3330 pg/mL
IL-2 secretion, pg/ml, at 10 ug/ml, N = 1 [5]: 5020 pg/mL
IL-2 secretion, pg/ml, at 10 ug/ml, N = 2 [5]: 3810 pg/mL
IL-2 secretion, pg/ml, at 30 ug/ml, N = 1 [5]: 5920 pg/mL
IL-2 secretion, pg/ml, at 30 ug/ml, N = 2 [5]: 7370 pg/mL
Kd [6]: 2.62 nM
koff [6]: 0.00118 s⁻¹
kon [6]: 450000 M⁻¹ s⁻¹
B1: 31C12F3 fully human CTLA-4 antibody (human IgG1, kappa) (antibody, V domains shown)
VH: QVQLVESGGGVVQPGRSLILSCAASGFTFSSYGMHWVRQAPGKGLEWVAVVWYDGSNKYYADSVKGRFTISRDNSKNTLYLQMSSLRAEDTAVYYCARGGIVVPGLFEYWGQGSLVTVSS
VL: DIQMTQSPSSLSASVGDRVAITCRTSQSISNLLNWYQQKPGKAPELLIYAPSSFQSGVPSRFRGSGSGTDFTLTISSLQPEDFATYYCQQSYSTPFTFGPGTKVDIK
notes: also called mAb010
